This data set is described as follows: amyloid nucleation score (Sup35N fusion, yeast selection) (log enrichment); library NNK3; higher = more nucleation; inactive = no reads after selection. Put shortly:
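Peptides of 20 random codons, each fused to Sup35N, were expressed in psi-negative yeast. Cells were induced with 100 μM copper sulfate for 24 hours and grown 7 days at 30°C on medium lacking adenine and uracil, and plasmid inserts before and after selection were Illumina-sequenced. Nucleation scores are DiMSum log enrichments of output over input reads, centred on the mode score of non-aggregating sequences, and sequences under 100 input reads were excluded.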

The results in this text go back to the supplement of paper PMC12042874.

± gives the uncertainty stated by the source.

DMIESSKRFFGSARIVLPEM: the amyloid nucleation score entry was “inactive”.

On to FNSPSWTYDRLHFPAEQQAL, for which the amyloid nucleation score entry was “inactive”. Turning to IMCSGFFDTVKFGWSLLSFS, the amyloid nucleation score worked out at 0.521 ± 0.24. With VSSTVGMV the figure was 0.175 ± 0.29; with VYVAYALFRRD, -0.333 ± 0.9; with VECNIEIHNISSFPSTEKNQ, 2.41 ± 0.06. With INSLFLRERICRVRCPGFAS the entry was “inactive”. With VCRFYIGFTYWLSCC the entry was “inactive”; with KFPWT, “inactive”.

On to YYYGKWYLYEKHSVVFRGCR, for which the amyloid nucleation score entry was “inactive”.

Take LDWLICSWGN: the amyloid nucleation score result is “inactive”.

VKGQCHYYLLSQLSGSSPVI: the amyloid nucleation score entry is “inactive”. Consider SKNATIQAMFERLVVVIS, for which the amyloid nucleation score result is “inactive”. The entry for GRTVTVWMFASVRRGVTGYV is “inactive”; for SRVYAKGRKNTSQFCSGGYS it is “inactive”.

The substance ALFVGFRF yielded an amyloid nucleation score of 1.55 ± 0.12. With YFSFFQRVLWYRCAASFNLQ the figure was -0.106 ± 0.63; with KFSCSDNPE, “inactive”. As to WGSRHKIVCELGLPFYVLEG, the amyloid nucleation score entry was “inactive”. The entry for LLLSFYLNGILVIHML is “inactive”; for FCSPSFYFGADGDTT it is 1.99 ± 0.058; for RYTGLMTKLASYYNKISICN it is “inactive”. The figure for HIILFSIKSSKD is 1.37 ± 0.12. With GMTVLLSMVI the entry was “inactive”. Regarding NMFRARGCSDFFLACMNDSA, the amyloid nucleation score entry is “inactive”. With QYSHPQRIIFSF the figure was -0.249 ± 0.43; with SKCVGFIMNFLISSDNEDSN, 2.27 ± 0.053.

As for VNNPVLFFQ, the amyloid nucleation score entry was “inactive”. With FFRSQKWKSAYMLDNGHSNS the entry was “inactive”.

Consider NIKGFRVDKYVETL, for which the amyloid nucleation score entry is “inactive”. With WLFRRVGMVTHAWMYWFKSR the entry was “inactive”. Take IHHKLVDL: the amyloid nucleation score entry was “inactive”. With LWYYCTQEVIARRDEKA the entry was “inactive”; with NIICTWCGGFMRLNLNV, 1.9 ± 0.073; with SALLKWYRYTSAWSGNDVAA, “inactive”. With YILNITNLWSLCLCRLCRKD the figure was 3.08 ± 0.078; with KQSLSMVWRKSDLALKVMVG, 0.904 ± 0.15; with SSTGSLIPQPAFSYFCTATP, “inactive”. The figure for SGLACRYCTMVGCNLNYNYW is 2.58 ± 0.055; for SNLFFSDWTLCCRCIVLVFK it is 1.6 ± 0.097; for IMWGYDSWFCSANHRSQFRY it is -0.314 ± 0.98. On to DQGHRNYINSPRNFLSDKSC, for which the amyloid nucleation score entry is “inactive”. The figure for DMNSACCVWHSVFYSEFYVI is 2.19 ± 0.069; for RCYCCPRTDSLGMG it is “inactive”. The entry for TDCFGLMSSALP is “inactive”. Substance MGNYRALCLLLTWLRFLAIE showed an amyloid nucleation score of -0.015 ± 0.96.

Consider RVTIVPTKHHLML, for which the amyloid nucleation score result is “inactive”.

Regarding VPGELGALGQACLKEDFSKG, the amyloid nucleation score result is “inactive”. The figure for VSLYCVIWIR is 1.22 ± 0.094; for MLVVWLFMWFIHINKRWDGA it is “inactive”; for YKFGVTPWLRFILSNVRKMM it is “inactive”.

Turning to KRLVGLYIYTGMWLKLLQLV, the amyloid nucleation score entry is “inactive”.

As for ANYFTPTNCSVRLRWISDPT, the amyloid nucleation score entry was “inactive”. The entry for LYWRSTGVSVWVRWVLYG is “inactive”. With VLRTTECVQG the entry was “inactive”; with SILYD, “inactive”. On to DLSSSGCKLSRIFHGHNWSR, for which the amyloid nucleation score result was “inactive”. Consider KYRPLKSCAHVMRDSIKSGC, for which the amyloid nucleation score result was “inactive”.

Turning to LLYYFYTFTQGR, the amyloid nucleation score is -0.148 ± 0.43.

In the case of HRSIRLYSETDWFRGLGSAG, the amyloid nucleation score result was “inactive”. The entry for PVGVLYTSANGTDFVNIVRD is “inactive”. With LQKGGNITCTVNHFMWVFAH the figure was 0.592 ± 0.32. With NWDWADE the entry was “inactive”; with RWCVM, 0.14 ± 0.56; with DYTPGGCRPTTNCLS, “inactive”. Consider PAPHRIKRIL, for which the amyloid nucleation score result was “inactive”. As to DSPRGV, the amyloid nucleation score result is “inactive”. With FAICSYANAEVSWKDGESAY the entry was “inactive”. As to NYKRTLEESN, the amyloid nucleation score came to 1.17 ± 0.18. With RIWRPLTFMSLDLMIMWCRH the entry was “inactive”; with VSPMVALCCFCLKEMNFGVH, 2.92 ± 0.069.

Substance KGYSRYQSVHRSNRELYNQA returned an amyloid nucleation score of -0.563 ± 0.64.

Turning to NMNSWAMQWTICTHSTFVLS, the amyloid nucleation score entry was “inactive”. With IVVQSNHAYTLVRTDSLVWM the figure was 1.17 ± 0.11; with LFFCNCCYGICS, 2.4 ± 0.079; with GNWCSG, “inactive”. The figure for YLICLVWKELLARAHIAELC is 0.28 ± 0.2. The figure for SRWPGHNYISQYGGYLLIFY is 2.02 ± 0.071; for FFLYAVLLFTLLPSVLASGN it is “inactive”. Consider TSDIAPFRDLLIASA, for which the amyloid nucleation score result was “inactive”. The entry for NKQNEVSRSCLSRCRYFGGD is “inactive”; for PVHSFNLAIYMRLFHVWPVF it is “inactive”. The entry for NLQNGDYITVWTEWEQEACR is “inactive”. On to VGMRNTSLRCLVLIG, for which the amyloid nucleation score entry was “inactive”. With SVGRYA the figure was -0.306 ± 0.41; with IMMIDWWYMFGCYACLETCH, “inactive”. The entry for LRSCSSWRRLFKRIVQRHWV is “inactive”; for IYMSRKSLVMDVWQRHRDKE it is “inactive”; for YFFFLRICWMDSSLVFGLLS it is “inactive”. With SSTYSGCWLVLSIKRFVLIE the entry was “inactive”; with TYCERKFTTSGTSYTSQKYF, “inactive”; with MCQAIDSNTYWYLAHCGNSS, 0.494 ± 0.25. Regarding NRYRTYVCLKDKRRSFKSGM, the amyloid nucleation score entry is “inactive”. The entry for VVFGHAFYVTSHKTVLCSFG is “inactive”; for PRGIDG it is “inactive”; for LPAGFKSR it is “inactive”. The entry for MWICVILGSQIWSRWETMNG is “inactive”; for PFACAVAKNPHES it is “inactive”. The entry for YLSGKLFTRAP is “inactive”.

As to SGLWW, the amyloid nucleation score result was “inactive”. With HSDFY the entry was “inactive”; with LRRDCFLDRSSLRHPVWEWL, “inactive”. With ISNLRYRSWAYLVRSFCSVL the entry was “inactive”; with SNPGAMSMCEYGGLFSRWLY, -0.516 ± 0.96; with TSSQKDIWQDVYGLLFWAQS, “inactive”. In turn, DFIFIQILDVNCRWDRCMYC had an amyloid nucleation score of 0.444 ± 0.16. The entry for DLFSFYVGCLKSHPENPSLM is “inactive”; for TQFISLSGGRTHLSGFLVFG it is 0.957 ± 0.14; for TYPTYRVWVEEQCRLYDTNR it is “inactive”. With RFVTRCREDSVTLKHG the entry was “inactive”. With VSHTSNTTYRWRMFIYWSAF the figure was 0.104 ± 0.26.

Turning to NSGGFSKDDGNGYKA, the amyloid nucleation score entry is “inactive”. With TSVGYNRIMFQERNIHPELN the entry was “inactive”; with SSVKRYLAVRWCSESMHTRW, “inactive”; with SARYWESDRLALIRCHLELR, “inactive”. With LIYILWH, the amyloid nucleation score result is “inactive”.

On to QPCPYKLCQFFRKDA, for which the amyloid nucleation score entry is “inactive”. With IYSWTGLSTTLKFLGMSLLL the figure was -0.218 ± 0.71; with CRDYYYHSQYCVVASVGTVV, “inactive”; with TIASVKLEFALPPSHLPLGV, “inactive”. On to SLTEQNL, for which the amyloid nucleation score result is “inactive”.

Take PVFFM: the amyloid nucleation score result is “inactive”. The entry for RLFMGRS is “inactive”; for GGHVSRRLHF it is “inactive”. The entry for DHGSIRRMGELHWMQLR is “inactive”. The entry for YSRMCLVY is “inactive”; for FTSMFVLIVILSQMLSLQFR it is “inactive”.

As for ATGVMLNDDS, the amyloid nucleation score entry is “inactive”. With ITYKGLIWMSQGHVACRSRM the figure was -0.008 ± 0.7; with SYMGHV, 0.506 ± 0.43; with VFLSSELSTLLVVYRLLGSG, “inactive”. With LTCPSFCVSRLRESWDESLS the entry was “inactive”; with DNLGLFSVVKRSPMLSVTKE, “inactive”.
